Consider 23 molecules from US20220119506A1 (NOVOBIND LIVESTOCK THERAPEUTICS, published 2022).

Sequences and labels used below:
B1: NBX0825 (VHH)
VHH: QVQLQESGGGVVETGGSLSVSCVASGRTFSAYTMAWFRQSPGKEREFVASMSRGSAAYYTDSVRGRFAISRVGDKNTVHLQMRDLKPEDTAVYYCAGGSPGSSQIATPEAYTYWGQGTQVTVSA
notes: on phage in the phage ELISA
B2: NBX0820 (VHH)
VHH: QVQLQESGGGLVQTGGSLRLSCAASGRTFSNYVIGWFRQAPGKEREFVAAVGRGINSAYHATHYSESVKDRFTTSRDNAKNTGFLQMNSLKTEDTAVYYCAVTSRWGQFDRTDFNSWGQGTQVTVSS
notes: on phage in the phage ELISA
B3: NBX0621 (VHH)
VHH: QVQLQESGGGLVQAGGSLRLSCAASGRTFSTYSMGWFRQVPGKEREFVAAIRWSGGSRTYADSVKGRFTISRDNTKNVVYLQMTSLKPEDTAVYYCAADRDGYSSYAHQYDYWGQGTQVTVSS
notes: on phage in the phage ELISA
B4: NBX0628 (VHH)
VHH: QVQLQQSGGGLVQVGGSLRLSCAASGRTFSSYAMGWFRQVPGKEREFVAAIKWSGGSRTYADSVAGRFTISRDNTKNVVYLQMTSLKPEDTAVYYCAADRDGYSRYAHQYDYWGQGTQVTVSS
notes: on phage in the phage ELISA
B5: NBX0618 (VHH)
VHH: QVQLQESGGGLVQPGGSLRLSCAASGSIFSFNAMGWYRQAPGKQRELVAAITKGGSTSYADSVKGRFTISVDNAKNTVYLQMNSLTPEDTAVYYCNVKTLRSALFPGYEYWGQGTQVTVSS
notes: on phage in the phage ELISA
B6: NBX0633 (VHH)
VHH: QVQLQESGGGLVQPGGSLRLSCTASGTIFRSKSMAWYRQAPGQGRETVAHISGLGHTNYVESVKGRFTVSRDDAKNAVYLQMSSLKPEDTAVYYCNTFTAAFSWGQGTQVTVSS
notes: on phage in the phage ELISA
B7: NBX0403 (VHH)
VHH: QVQLQQSGGSLVQAGGSLRLSCAASGLPFINYAMGWFRQAPGKDREIVAAIDWNGDSTYYAVSVKGRFTISRDNAKNTVTLQMNSLKPEDTAIYYCAADYQPYIRVSATRRFEADYWGQGTQVTVSS
notes: on phage in the phage ELISA
B8: NBX0822 (VHH)
VHH: QVQLQESGGGLVRPGDSLTLSCTYSGQTFTNSGMAWFRQRPGKEREFVAAVSRSGLGRRYADSVRGRFTITRDNGKNTANLQMDSLKPEDTAVYSCAATTLDWGPRGPYRYWGQGTQVTVSS
notes: on phage in the phage ELISA
B9: NBX0602 (VHH)
VHH: QVQLQESGGGLVQAGDSLRLSCAASGRTFSRYAMGWFRQAPGKEREFVAAVDWSGGSTAYADSVKGRFTISRDNAKNTVYLQMNSLKPDDTAVYYCAARARDVYGRAWYVEDSSTYDYWGQGTQVTVSS
notes: on phage in the phage ELISA
B10: NBX0813 (VHH)
VHH: QVQLQESGGGLVQAGGSLRLSCVVSGMLFSIRNMRWYRQAPGKQRELVAQIGSSGNTDYVESVKGRFTISRDNAKNTVYLQMNSLKPEDTAVYFCNALNYWGKGTLVTVSS
notes: on phage in the phage ELISA
B11: NBX0821 (VHH)
VHH: QVQLQESGGGLVQAGGSLRLSCVVSGMLFSIRNMRWYRQAPGKQRELVAQIGTSGATDYVGSVEGRFTISRDNPKNTVYLQMNSLKPEDTAVYFCNALNYWGEGTLVTVSS
notes: on phage in the phage ELISA
B12: NBX0616 (VHH)
VHH: QVQLQESGGGLVQAGGSLRLSCATSGLTFSSYAMGWFRQAPGKEREFVATISWSGKSTRYSDSVKGRFTISRDNAKNTVYLQMNSLKPEDTAVYYCAADYQRLGLLRVGVAEYDYWGQGIQVTVSS
notes: on phage in the phage ELISA
B13: NBX0635 (VHH)
VHH: QVQLQESGGGLVQAGGSLRLSCATSGLTFSNYAMGWFRQAAGKEREFVATISWSGKSTRYADSVKGRFTISRDNAKNTVDLRMNSLKPEDTAVYYCAAEYQRLGLLRDGVADYSYWGQGTQVTVSS
notes: on phage in the phage ELISA
B14: NBX0817 (VHH)
VHH: QVQLQESGGGLVQAGGSLRLSCGASGGTNSNYAMGWFRQPPGKKREFVAALSWSGYNTHYADSVKGRFTISRPSARTVDLQMNNVKPEDTAVYYCAARLSGRTAGSRTYYAEGQYDYRGQGTQVTVSS
notes: on phage in the phage ELISA
B15: NBX0823 (VHH)
VHH: QVQLQQSGGGLVQTGGSLRLSCAASGSIFSIDFMGWYRQAPGNPREFVARIRGGNTYYADSVKGRFNISRDNAENTVYMQMNSLKSEDTAVYYCNAQITMRGGTWSTSEYWGQGTQVNVSS
notes: on phage in the phage ELISA
B16: NBX0824 (VHH)
VHH: QVQLQESGGGLVQAGGSLRLTCAASGRTLSSYLSSYAMGWFRQAPGKERESVATITWNGDRTLYADAVKGRFTISRDNAKNTVYLQMNSVIPEDTAVYYCAADTVGRWRSTLSVRDEYDYWGQGTQVTVAS
notes: on phage in the phage ELISA
B17: NBX0815 (VHH)
VHH: QVQLQESGGGLVQAGGSLRLSCAASGRTFSSYAMGWFRQSPGKDREFVAAVSWSGGSTYYADSLKGRFTISRDNAKNTVYLQMNSLKPEDTADYYCAAQRVMDYYRPRTESAYAYWGQGTRVTVSS
notes: on phage in the phage ELISA
B18: NBX0723 (VHH)
VHH: QVQLQESGGGLVQAGGSLRLSCAASGRTFSSYPMGWFRQAPGSEREQIAGISRSGVPGKYADSVSGRFTISRDNAKNTLYLQMNSLKPEDTAVYYCAARSIYSNNYSYWGQGTQVTVSS
notes: on phage in the phage ELISA
B19: NBX0724 (VHH)
VHH: QVQLQQSGGGLVQAGGSLRLSCAASGRTFSSYPMGWFRQAPGSEREQIAGISRSGVSGKYADSVSGRFTISRDNAKNTLYLQMNSLKPEDTAVYYCAARSIYSNNYSYWGQGTQVTVSS
notes: on phage in the phage ELISA
B20: NBX0725 (VHH)
VHH: QVQLQQSGGGLVQAGGSLRLSCTASGRTFSSYPMGWFRQAPGKEREQIAGISRSGNPGKYADSVSGRFTISRDNAKNTLYLQMNSLKPEDTAVYYCAARQIYSNNYSYWGQGTQVTVSS
notes: on phage in the phage ELISA
B21: NBX0746 (VHH)
VHH: QVQLQESGGGLVQAGGSLRLSCAASGRTFSSYAMGWFRRAPGKEREQIAGISRSGNPGKYADSVSGRFTISRDNAKNTLYLQMNSLKPEDTAVYYCAARQIYSNNYSYWGQGTQVTVSS
notes: on phage in the phage ELISA
B22: NBX0722 (VHH)
VHH: QVQLQESGGGLVQAGGSLRLSCRASGRTFSSYPMGWFRQAPGKEREQIAGISRSGDPGKYAASVSGRFTISRDNAKNTLYLQMNSLKPEDTAVYYCAARQIYSNNYSYWGQGTQVTVSS
notes: on phage in the phage ELISA
B23: NBX0745 (VHH)
VHH: QVQLQESGGGLVQAGGSLRLSCAASGRTFSSYPMGWFRQAPGKEREQIAGISRSGDPGKYAASVSGRFTISRDNAKNTLYLQMNSLKPEDTAVYYCAAREIYSNNYSYWGQGTQVTVSS
notes: on phage in the phage ELISA

The target of one test is T1, PirA (Vibrio parahaemolyticus).
T1 construct: also called JHE-like toxin PirA-like; vp19
T1 chain: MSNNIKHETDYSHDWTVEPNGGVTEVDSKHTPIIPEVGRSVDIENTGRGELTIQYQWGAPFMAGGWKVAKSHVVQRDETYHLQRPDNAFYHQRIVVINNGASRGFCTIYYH
Description: phage ELISA, antigen-coated wells.
In the case of B1, the “binding above PBS-coated wells” value is at least 50%.

Take B2: the “binding above PBS-coated wells” value is at least 50%.

Take B3: the “binding above PBS-coated wells” value is at least 50%.

Regarding B4, the “binding above PBS-coated wells” value is at least 50%.

For B5, the “binding above PBS-coated wells” value was at least 50%.

Turning to B6, the “binding above PBS-coated wells” value is at least 50%.

As for B7, the “binding above PBS-coated wells” value was at least 50%.

As to B8, the “binding above PBS-coated wells” value was at least 50%.

As for B9, the “binding above PBS-coated wells” value was at least 50%.

Turning to B10, the “binding above PBS-coated wells” value was at least 50%.

On to B11, for which the “binding above PBS-coated wells” value is at least 50%.

With B12, the “binding above PBS-coated wells” value is at least 50%.

Turning to B13, the “binding above PBS-coated wells” value is at least 50%.

With B14, the “binding above PBS-coated wells” value is at least 50%.

B15: the “binding above PBS-coated wells” value is at least 50%.

Take B16: the “binding above PBS-coated wells” value is at least 50%.

As to B17, the “binding above PBS-coated wells” value is at least 50%.

For a further test, the target named is T2, VP28 (White spot syndrome virus).
T2 construct: Recombinant antigen; also called Coat protein VP28
T2 chain: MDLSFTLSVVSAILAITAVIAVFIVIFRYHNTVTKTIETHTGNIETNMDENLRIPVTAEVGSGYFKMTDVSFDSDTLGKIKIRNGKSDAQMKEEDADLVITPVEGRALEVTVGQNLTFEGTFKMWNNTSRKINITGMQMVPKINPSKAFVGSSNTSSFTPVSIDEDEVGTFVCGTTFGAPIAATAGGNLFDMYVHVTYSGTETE
The test is described as follows: phage ELISA, antigen-coated wells.
B18: the “binding above PBS-coated wells” value was at least 50%.

For the molecule B19, the “binding above PBS-coated wells” value is at least 50%.

For B20, the “binding above PBS-coated wells” value was at least 50%.

On to B21, for which the “binding above PBS-coated wells” value is at least 50%.

In the case of B22, the “binding above PBS-coated wells” value is at least 50%.

Turning to B23, the “binding above PBS-coated wells” value was at least 50%.
